Experimental data as given in patent publication US20250319154A1.

Target: leukocyte function antigen (LFA-1) on THP-1 cells (human) (UniProt P20701)
Assay: cell-based or functional assay

Sequence of leukocyte function antigen (LFA-1) on THP-1 cells (human) (P20701 26-1170, chain 1 of 2): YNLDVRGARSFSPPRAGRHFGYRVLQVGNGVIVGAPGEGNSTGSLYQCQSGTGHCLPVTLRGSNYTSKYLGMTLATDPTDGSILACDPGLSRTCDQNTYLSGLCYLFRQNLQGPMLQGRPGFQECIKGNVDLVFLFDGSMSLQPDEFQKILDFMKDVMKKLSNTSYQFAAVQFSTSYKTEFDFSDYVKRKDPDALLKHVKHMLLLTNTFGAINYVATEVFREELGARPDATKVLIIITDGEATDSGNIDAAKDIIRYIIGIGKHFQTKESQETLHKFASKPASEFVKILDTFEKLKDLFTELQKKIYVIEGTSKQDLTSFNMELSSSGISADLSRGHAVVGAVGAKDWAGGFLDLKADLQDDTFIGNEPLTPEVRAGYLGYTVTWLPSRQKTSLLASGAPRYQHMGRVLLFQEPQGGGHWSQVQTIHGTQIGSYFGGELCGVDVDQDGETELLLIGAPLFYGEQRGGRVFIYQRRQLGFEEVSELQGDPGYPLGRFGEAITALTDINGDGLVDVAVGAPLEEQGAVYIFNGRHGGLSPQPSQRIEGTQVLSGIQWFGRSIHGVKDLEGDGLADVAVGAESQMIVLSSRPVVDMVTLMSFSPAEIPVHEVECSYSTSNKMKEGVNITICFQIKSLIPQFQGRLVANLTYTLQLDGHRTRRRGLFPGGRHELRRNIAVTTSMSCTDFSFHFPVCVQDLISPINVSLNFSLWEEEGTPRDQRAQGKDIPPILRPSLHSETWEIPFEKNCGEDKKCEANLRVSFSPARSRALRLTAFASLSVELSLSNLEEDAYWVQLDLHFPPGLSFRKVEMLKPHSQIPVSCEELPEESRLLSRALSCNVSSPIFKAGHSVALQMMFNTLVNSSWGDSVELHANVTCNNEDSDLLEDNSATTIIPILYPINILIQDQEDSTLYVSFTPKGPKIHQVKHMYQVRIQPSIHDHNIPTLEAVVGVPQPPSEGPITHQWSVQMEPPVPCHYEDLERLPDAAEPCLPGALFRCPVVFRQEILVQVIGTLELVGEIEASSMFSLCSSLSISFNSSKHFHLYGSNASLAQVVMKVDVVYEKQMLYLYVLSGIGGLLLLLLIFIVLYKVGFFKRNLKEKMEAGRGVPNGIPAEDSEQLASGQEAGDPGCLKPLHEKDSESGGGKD
Sequence of leukocyte function antigen (LFA-1) on THP-1 cells (human) (P05107 23-769, chain 2 of 2, further chain): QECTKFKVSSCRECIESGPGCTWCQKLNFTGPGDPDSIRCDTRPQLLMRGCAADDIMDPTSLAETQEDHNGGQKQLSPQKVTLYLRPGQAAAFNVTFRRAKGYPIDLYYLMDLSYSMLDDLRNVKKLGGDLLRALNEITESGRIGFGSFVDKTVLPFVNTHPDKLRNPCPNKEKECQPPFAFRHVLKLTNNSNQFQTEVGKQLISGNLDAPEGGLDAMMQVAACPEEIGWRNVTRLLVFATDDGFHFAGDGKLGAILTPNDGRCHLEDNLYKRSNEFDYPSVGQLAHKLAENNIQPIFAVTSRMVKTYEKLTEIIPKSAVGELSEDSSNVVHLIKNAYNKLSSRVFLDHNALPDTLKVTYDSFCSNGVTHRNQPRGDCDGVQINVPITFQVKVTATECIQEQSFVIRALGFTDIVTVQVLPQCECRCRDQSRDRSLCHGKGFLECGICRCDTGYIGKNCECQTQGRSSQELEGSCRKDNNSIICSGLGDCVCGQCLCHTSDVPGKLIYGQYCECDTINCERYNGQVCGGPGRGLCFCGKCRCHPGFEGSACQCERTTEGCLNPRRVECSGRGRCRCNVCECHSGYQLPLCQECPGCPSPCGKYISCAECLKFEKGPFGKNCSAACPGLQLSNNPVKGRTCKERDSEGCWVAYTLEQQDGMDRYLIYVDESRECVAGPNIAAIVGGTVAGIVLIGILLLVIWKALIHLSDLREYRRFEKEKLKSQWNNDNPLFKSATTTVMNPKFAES

## Leukotoxin (LtxA) polypeptide isolated from Aggregatibacter actinomycetemcomitans (from UniProt P16462 1-1055)
  10%-maximal effective concentration (EC10), calculated from an in vitro model using THP-1 cells: 0.02 µg/mL
